Reference: the supplement of paper PMC9170038

System: MS2 coat protein
Experiment: apparent KD of MS2 coat protein; designed switch direction (-1 OFF switch, 1 ON switch): -1; higher = weaker reporter binding
Method in brief: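 The buffer was Tris-HCl pH 7.5 with KCl, MgCl2, BSA, DTT, tRNA and Tween-20. In it, SNAP-549-labelled MS2 coat protein was titrated in doubling steps from 0.7 or 1.5 nM to 3 µM over chip-bound RNA switches transcribed by stalled E. coli RNA polymerase on Illumina chips. Apparent KD is the per-design median over clusters of curve fits to normalised fluorescence.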

[1] = Eterna round: R95, input ligand: microRNA oligo, concentration not stated
[2] = Eterna round: R95, input ligand: FMN 200 uM
[3] = Eterna round: R95, input ligand: none
[4] = input ligand: microRNA oligo, concentration not stated

Sequence: GCACGGUAAGUGAGGAUAUACCUCUGGAUACAGAGGUAGAAGGCACAUGAGGAUCACCCAUGUUCCAGCCGUGC [Fiskers BMX 4 - 86] (puzzle: Brourd's mod of Exclusion 4)
- apparent KD of MS2 coat protein [1]: 14.7 nM

Sequence: CUGGUCCGAGGAUAUAUUAUGUGAAACAUGAGGAUCACCCAUGUUAUAUAAUGGAUGUAAAUAGAAGGCGGACUAG [Mat - Exclusion 5 - JL mod - D62] (puzzle: Exclusion 5)
- apparent KD of MS2 coat protein [2]: 27.7 nM
- apparent KD of MS2 coat protein [1]: 25.5 nM
- apparent KD of MS2 coat protein [3]: 28.2 nM

Sequence: GCAAGCGACUAGGCUCGUCUUAUAUUGAAAAGAUUGAAAACAUGAGGAUCACCCAUGUAUGUGGGAAAGUUGAAGUG [JR_SV3TOV2_Sub010] (puzzle: Sensor v3, turn-off variant 2)
- apparent KD of MS2 coat protein [2]: 393 nM
- apparent KD of MS2 coat protein [1]: 526 nM
- apparent KD of MS2 coat protein [3]: 332 nM

Sequence: AAGUACCGUCACGAUAGUGAUGGUACAACAAGCAUGUAAACAUGAGGAUCACCCAUGUCCUCAUAUGCUCGUCUUAU [Sensor 3 - 64] (puzzle: Sensor v3, turn-off variant 2)
- apparent KD of MS2 coat protein [2]: 375 nM
- apparent KD of MS2 coat protein [1]: 34.3 nM
- apparent KD of MS2 coat protein [3]: 566 nM

Sequence: GGGAGAGAGUGAGGAUAUCAAAGAACAUGAGGAUCACCCAUGUAACCUCAUGUAAGAAGAAGAAGUGAGAAGGCACAGGAGGGU [Default title] (Eterna round: R96, puzzle: Exclusion NG 2)
- apparent KD of MS2 coat protein (input ligand: FMN 200 uM): 463 nM
- apparent KD of MS2 coat protein [4]: 256 nM
- apparent KD of MS2 coat protein (input ligand: none): 628 nM

Sequence: CGGUGCUUCUGGAAACAUGAGGAUCACCCAUGUUGAGUUAGCGAGGAUAUCGGUAACACAUGUCACGAGAAGGCGCGAACCAGA [Ex NG3 #34] (Eterna round: R96, puzzle: Exclusion NG 3)
- apparent KD of MS2 coat protein (input ligand: FMN 200 uM): 10.4 nM
- apparent KD of MS2 coat protein [4]: 13 nM
- apparent KD of MS2 coat protein (input ligand: none): 16.7 nM

Sequence: UUGAACUUAGGAUAUUGGUUCAGCUACAUGAGGAUCACCCAUGUGGUACCUAGCUGAGGUCAAGAAGGGAGUGUUG [EX5 B.12] (Eterna round: R97, puzzle: Exclusion 5)
- apparent KD of MS2 coat protein (input ligand: FMN 200 uM): 25.6 nM
- apparent KD of MS2 coat protein (input ligand: none): 20.6 nM

Sequence: AAGUCGACGGUGAGGAUAUUGGUUGAACGACAGAUUAAGAAGGUACAUGAGGAUCACCCAUGUGGGUAACGUUG [Brourd's EX4 #76] (Eterna round: R97, puzzle: Brourd's mod of Exclusion 4)
- apparent KD of MS2 coat protein (input ligand: FMN 200 uM): 108 nM
- apparent KD of MS2 coat protein (input ligand: none): 86.2 nM

Sequence: UAAACCAGAGGAUAUGCGAAUAAAUAAAACUUUUUUUUUUAACAUGAGGAUCACCCAUGUAGAAGGCUGCAAAU [Ex2 #33] (Eterna round: R97, puzzle: Exclusion 2)
- apparent KD of MS2 coat protein (input ligand: FMN 200 uM): 30 nM
- apparent KD of MS2 coat protein (input ligand: none): 38.9 nM

Sequence: UACAUGAGGAUCACCCAUGUUUUGUCGUGUAUGGUAUUUAUCUAGGAUAUCGAUUUAUUUAACCACGAGAAGGAGAGUAUCAAU [MOD Solution 21 by JMF] (Eterna round: R96, puzzle: Exclusion NG 3)
- apparent KD of MS2 coat protein (input ligand: FMN 200 uM): 46.4 nM
- apparent KD of MS2 coat protein [4]: 36.8 nM
- apparent KD of MS2 coat protein (input ligand: none): 44.1 nM

Sequence: UUAAUUAAUUAUAUAAGAUCACAUGAGGAUCACCCAUGUAUAUAGGAUAUCAGCUCGUGUAGAGCUGAGAAGGAUAUACAAUAU [ExNG3/3-B3] (Eterna round: R96, puzzle: Exclusion NG 3)
- apparent KD of MS2 coat protein (input ligand: FMN 200 uM): 241 nM
- apparent KD of MS2 coat protein [4]: 210 nM
- apparent KD of MS2 coat protein (input ligand: none): 175 nM

Sequence: UCUGCCGCCGUGAGGAUAUGCCCGCGCGCCCGCGGGCAGAAGGCACAUGAGGAUCACCCAUGUCCCGCGGCAUU [salish99_bmx4_r4_128] (Eterna round: R97, puzzle: Brourd's mod of Exclusion 4)
- apparent KD of MS2 coat protein (input ligand: FMN 200 uM): 36.4 nM
- apparent KD of MS2 coat protein (input ligand: none): 17.4 nM

Sequence: AAGGGACAUGAGGAUCACCCAUGUGAGGAUAUGCUAUGGAAAAUAAAAAAUAAACAUAGCAGAAGGCAUAAAAA [Mat - Exclusion 1 - Eli mod - D37] (Eterna round: R96, puzzle: Exclusion 1)
- apparent KD of MS2 coat protein (input ligand: FMN 200 uM): 89.2 nM
- apparent KD of MS2 coat protein [4]: 65.3 nM
- apparent KD of MS2 coat protein (input ligand: none): 99.2 nM

Sequence: GGAUCACAUGUUAGGAUAUGCAGGUCCUUGGAUCUGCAGAAGGGACAUGAGGAUCACCCAUGUCAUGAAGAUCC [Mat - Exclusion 4 - Eli Mod - D52] (Eterna round: R97, puzzle: Brourd's mod of Exclusion 4)
- apparent KD of MS2 coat protein (input ligand: FMN 200 uM): 43.4 nM
- apparent KD of MS2 coat protein (input ligand: none): 21 nM

Sequence: CAAAAGAGAGGAUAUACAUGAGGAUCACCCAUGUAAAGUCCGCUGGUUGUUCAGAUAUGUAGAAGGCUCGUGUC [EX3 C.5] (Eterna round: R97, puzzle: Exclusion 3)
- apparent KD of MS2 coat protein (input ligand: FMN 200 uM): 16.9 nM
- apparent KD of MS2 coat protein (input ligand: none): 14.4 nM

Sequence: ACAUGAGGAUCACCCAUGUAAACAUGAUGGCUGAUGUAGAGCUAGGAUAUGAGUGACUAUCUAUCUCAGAAGGAGCUUGACUGG [Deportation 45 - Jieux - Exclusion NG 3] (Eterna round: R96, puzzle: Exclusion NG 3)
- apparent KD of MS2 coat protein (input ligand: FMN 200 uM): 26 nM
- apparent KD of MS2 coat protein [4]: 27.1 nM
- apparent KD of MS2 coat protein (input ligand: none): 31.4 nM

Sequence: CGUGUCUUUCACGUGAGUGGUGGGUGCAACAGGUGGGAAACAUGAGGAUCACCCAUGUCCUCACUUGCUCGUCUUUU [Grok-var2-03] (puzzle: Sensor v3, turn-off variant 2)
- apparent KD of MS2 coat protein [2]: 27.1 nM
- apparent KD of MS2 coat protein [1]: 109 nM
- apparent KD of MS2 coat protein [3]: 26.1 nM

Sequence: AACAGGUCAGGAUAUACAUGAGGAUCACCCAUGUAGACUUCUGGUCUACCUUGACCGUGUAGAAGGGACCUGAA [Exclusion 3 (MOD2 of #98 Marzena11)] (Eterna round: R97, puzzle: Exclusion 3)
- apparent KD of MS2 coat protein (input ligand: FMN 200 uM): 43.9 nM
- apparent KD of MS2 coat protein (input ligand: none): 28.8 nM

Sequence: UUUAAUUUUUUUUUUUUACAAGCUUUUUGCUCGUCUUAUACAUGAGGAUCACCCAUGUGGGUGAAAAGUAAAUUAUC [JMF 44] (puzzle: Sensor v3, turn-off variant 2)
- apparent KD of MS2 coat protein [2]: 22.4 nM
- apparent KD of MS2 coat protein [1]: 18.7 nM
- apparent KD of MS2 coat protein [3]: 33.1 nM

Sequence: ACAUAUGUUAGAGGAUCCUACAUGAGGAUCACCCAUGUCGGUAUAAAACUCACACGGUCAACGCUUUUUGUUCGCUA [Eternabot (L1) Solution 2] (Eterna round: R97, puzzle: Sensor, turn-off variant 1)
- apparent KD of MS2 coat protein (input ligand: FMN 200 uM): 30.5 nM
- apparent KD of MS2 coat protein (input ligand: none): 34.7 nM

Sequence: UUUUAGAGAGGAUAUAUUAUGUGAAACAUGAGGAUCACCCAUGUAAUAUGAUGGAUGUAAAUAGAAGGCUCAUUUA [JL-ex5-3.06] (puzzle: Exclusion 5)
- apparent KD of MS2 coat protein [2]: 34.6 nM
- apparent KD of MS2 coat protein [1]: 48.3 nM
- apparent KD of MS2 coat protein [3]: 58 nM

Sequence: GUGUAGCAAGGAUAUACAUGAGGAUCACCCAUGUGAAUAAGAUAGAAUAAGAUAAAGUGUAGAAGGUGUAGUGU [Excluse me!!! 10 - Jieux - Exclusion 3] (puzzle: Exclusion 3)
- apparent KD of MS2 coat protein [1]: 37.2 nM

Sequence: ACAUGAGGAUCACCCAUGUCUGGCUGGUCCGUCUCGGCUGUCGAGGAUAUGGCUCGGUGUCCGCGCUAGAAGGCGGGAGCCGGA [Aenatbe mod 77] (Eterna round: R96, puzzle: Exclusion NG 3)
- apparent KD of MS2 coat protein (input ligand: FMN 200 uM): 685 nM
- apparent KD of MS2 coat protein [4]: 58.2 nM
- apparent KD of MS2 coat protein (input ligand: none): 78.8 nM

Sequence: CACCUGAACACAGGAUAUCAUACAUGAGGAUCACCCAUGUAAUAAAUGAGAAUUUCGAAUGUAAUUGAGAAGGGUGGAUAAGGC [Ostricism 90 - Jieux - Exclusion NG 2] (Eterna round: R96, puzzle: Exclusion NG 2)
- apparent KD of MS2 coat protein (input ligand: FMN 200 uM): 97.8 nM
- apparent KD of MS2 coat protein [4]: 34.6 nM
- apparent KD of MS2 coat protein (input ligand: none): 41.1 nM

Sequence: GUGUACAGAGGAUAUACAAGAGGAGUUACGAAAGUAACUUCACAUGAGGAUCACCCAUGUAGAAGGCUGUACAC [Dot plot directed v7] (puzzle: Exclusion 2)
- apparent KD of MS2 coat protein [1]: 21.2 nM

Sequence: AGAUCGAGUGUGAGGAUAUUGACCGGACGACCCAUCGAGAAGGCACAUGAGGAUCACCCAUGUGAUUCGGUUCA [Brourd's EX4 #57] (Eterna round: R97, puzzle: Brourd's mod of Exclusion 4)
- apparent KD of MS2 coat protein (input ligand: FMN 200 uM): 27.1 nM
- apparent KD of MS2 coat protein (input ligand: none): 15.4 nM

Sequence: AAAAAACAAGGAUAUACGCACGAGGAUUGUCUUAAUUUUUGACAUGAGGAUCACCCAUGUAGAAGGUGUUAAAA [JR_Exclusion2_Sub014] (puzzle: Exclusion 2)
- apparent KD of MS2 coat protein [1]: 76.5 nM

Sequence: UAAGUUCAGUAGGAUAUUCAGCAGCUGCUGCUAGGAGAAGGGCUGACAUGAGGAUCACCCAUGUGAGUGUCCGU [Eternabot (L2) Solution 55] (Eterna round: R97, puzzle: Exclusion 6)
- apparent KD of MS2 coat protein (input ligand: FMN 200 uM): 92.2 nM
- apparent KD of MS2 coat protein (input ligand: none): 32.1 nM

Sequence: CUUUUGUGAGGAUAUCAGGUGUGCUAGCGUACUGGUACAUCUGAGAAGGCACAUGAGGAUCACCCAUGUUUCUU [JL-ex4-3.19 Brourd mod] (puzzle: Exclusion 4)
- apparent KD of MS2 coat protein [1]: 27.1 nM

Sequence: AUAGUAGAAGUGAGGAUAUCGUAGAUUUUAGGAAACGAGAAGGCACAUGAGGAUCACCCAUGUAAGAUGGAGGU [JR_BMOE4_Sub051] (puzzle: Brourd's mod of Exclusion 4)
- apparent KD of MS2 coat protein [2]: 104 nM
- apparent KD of MS2 coat protein [1]: 263 nM
- apparent KD of MS2 coat protein [3]: 124 nM

Sequence: UACAGACAUGAGGAUCACCCAUGUUAGGAUAUGCAGAACUCUACUCACGUGGCGUUUAGCAGAAGGAAUACGGG [Eternabot (L1) Solution 68] (Eterna round: R97, puzzle: Exclusion 1)
- apparent KD of MS2 coat protein (input ligand: FMN 200 uM): 122 nM
- apparent KD of MS2 coat protein (input ligand: none): 74.6 nM

Sequence: GCAGCAACUCUAAUUAAAACCACAUGAGGAUCACCCAUGUCUCAGGAUAUGGUCUGGAUUACAGGCCAGAAGGGAGAAAGCUGC [Eli exng3 - 051] (Eterna round: R96, puzzle: Exclusion NG 3)
- apparent KD of MS2 coat protein (input ligand: FMN 200 uM): 15.9 nM
- apparent KD of MS2 coat protein [4]: 14.9 nM
- apparent KD of MS2 coat protein (input ligand: none): 17 nM

Sequence: CUCAUGUGAGGAUAUAGUGCGUCUUCUAUUAUUAUUGAGUACUAGAAGGCACAUGAGGAUCACCCAUGUAGCAC [Ex4 - 3 - 45] (Eterna round: R96, puzzle: Exclusion 4)
- apparent KD of MS2 coat protein [4]: 29.2 nM
- apparent KD of MS2 coat protein (input ligand: none): 57.6 nM
